# This sample holds only a part of the variants without activity.
# What was measured:
# biotinyl-Val-oxazolone = assay: self-aminoacylation, catalytic enhancement (BVO) (fold over background); higher = more active; k-Seq, kA / k0A0; sequences stand for … in GGGAAUGGAUCCACAUCUACGAAUUC…UUCACUGCAGACUUGACGAAGCUG
# Summary of the method: (§1)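 Working in 50 μL HEPES/NaCl/KCl/MgCl2/CaCl2 buffer with 5% acetonitrile at pH 6.9–7.0, mutagenized RNA pools (0.43 μM; 21-nt variable region) were reacted with 2–1250 μM of each biotinyl-aminoacyl-oxazolone for 90 minutes at room temperature. Streptavidin capture followed, with quantification by triplicate qPCR and Illumina sequencing. Catalytic enhancement is reported as median kA over the uncatalyzed rate, the low-activity peak of a bimodal Gaussian fit to the data.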
# biotinyl-Trp-oxazolone = assay: self-aminoacylation, catalytic enhancement (BWO) (fold over background); higher = more active; k-Seq, kA / k0A0; sequences stand for … in GGGAAUGGAUCCACAUCUACGAAUUC…UUCACUGCAGACUUGACGAAGCUG
# Summary of the method: as §1
# biotinyl-Met-oxazolone = assay: self-aminoacylation, catalytic enhancement (BMO) (fold over background); higher = more active; k-Seq, kA / k0A0; sequences stand for … in GGGAAUGGAUCCACAUCUACGAAUUC…UUCACUGCAGACUUGACGAAGCUG
# Summary of the method: as §1
# biotinyl-Leu-oxazolone = assay: self-aminoacylation, catalytic enhancement (BLO) (fold over background); higher = more active; k-Seq, kA / k0A0; sequences stand for … in GGGAAUGGAUCCACAUCUACGAAUUC…UUCACUGCAGACUUGACGAAGCUG
# Summary of the method: as §1
# biotinyl-Ile-oxazolone = assay: self-aminoacylation, catalytic enhancement (BIO) (fold over background); higher = more active; k-Seq, kA / k0A0; sequences stand for … in GGGAAUGGAUCCACAUCUACGAAUUC…UUCACUGCAGACUUGACGAAGCUG
# Summary of the method: as §1
# biotinyl-Phe-oxazolone = assay: self-aminoacylation, catalytic enhancement (BFO) (fold over background); higher = more active; k-Seq, kA / k0A0; sequences stand for … in GGGAAUGGAUCCACAUCUACGAAUUC…UUCACUGCAGACUUGACGAAGCUG
# Summary of the method: as §1
Sequence,self-aminoacylation (biotinyl-Val-oxazolone),self-aminoacylation (biotinyl-Trp-oxazolone),self-aminoacylation (biotinyl-Met-oxazolone),self-aminoacylation (biotinyl-Leu-oxazolone),self-aminoacylation (biotinyl-Ile-oxazolone),self-aminoacylation (biotinyl-Phe-oxazolone)
ACUACCCUAGUCAUCGAGUGA [Fam2.1 aminoacylation ribozyme variant],2.64,5.01,4.62,5.39,2.95,8.71
CCACACUUGAAGCAAUCGGGC [Fam1B.1 aminoacylation ribozyme variant],2.63,2.26,1.34,1.57,1.55,5.71
CUACUUCAAACAACCGUUCUG [Fam1A.1 aminoacylation ribozyme variant],0.676,0.515,0.611,0.625,0.723,0.558
AUUACCCUAGUCCUCGAGUGA [Fam2.1 aminoacylation ribozyme variant],2.34,4.08,4.15,3.93,2.2,15.9
AUUCACUUAGGUCAUCGCGUG [Fam2.2 aminoacylation ribozyme variant],6.11,11.1,11.7,15,6.03,94.5
CUACUUCAAACAAGCGCUCUG [Fam1A.1 aminoacylation ribozyme variant],0.86,0.842,0.654,0.852,0.868,0.571
AAGUUUGCUAAUACCCGCAAG [Fam3.1 aminoacylation ribozyme variant],0.838,1.45,0.577,0.783,0.909,0.631
CCAAACUUCAAUCAAUCGGUC [Fam1B.1 aminoacylation ribozyme variant],1.28,23.5,1.43,1.73,1.29,36.8
CCACACUUCAACCAAUCGGUA [Fam1B.1 aminoacylation ribozyme variant],1.1,1.63,1.56,0.859,1.1,1.08
CCACACUUGAAGCAAUCGUUC [Fam1B.1 aminoacylation ribozyme variant],0.825,0.436,0.487,0.674,0.685,0.863
AUUCGUCUAGGUCAUCGGGUG [Fam2.2 aminoacylation ribozyme variant],4.85,6.11,4.96,5.27,4.9,43.2
AUUAGCCUGGGCAUCGAGUGA [Fam2.1 aminoacylation ribozyme variant],3.8,7.8,6.92,8.51,3.66,57.8
AUUACCUUGGUCAUCGGGUGA [Fam2.1 aminoacylation ribozyme variant],6.05,10.8,9.54,10.6,5.69,53.3
AUUCACCUAGGUCAUCUAGUG [Fam2.2 aminoacylation ribozyme variant],2.78,4.12,4.77,5.99,2.92,18.7
AUGACACUGGUCAUCGAGUGA [Fam2.1 aminoacylation ribozyme variant],3.05,6.47,5.48,6.42,3.42,25.8
CUACCUCUAACAAUCGGUCUG [Fam1A.1 aminoacylation ribozyme variant],0.739,0.565,0.915,0.919,0.8,0.97
AAGUCUGUUAAUAGUCGCAAG [Fam3.1 aminoacylation ribozyme variant],1.03,0.936,1.03,1.01,1.14,1.04
CUACUCCAAACAAUUGGUCUG [Fam1A.1 aminoacylation ribozyme variant],1.03,0.642,1.09,1.02,1.13,0.67
AAGUUGGCUAAUAGUCGGAAG [Fam3.1 aminoacylation ribozyme variant],1.48,1.15,1.22,1.1,1.47,2.31
CCUCACUUCAAGCAAUCGGUA [Fam1B.1 aminoacylation ribozyme variant],1.11,1.57,1.51,1.22,1.05,1.91
AUUACCCUGGUCAUCGACUGC [Fam2.1 aminoacylation ribozyme variant],0.722,0.371,0.555,0.839,0.701,0.441
AUUACGCUGGUCAUCGAGUGG [Fam2.1 aminoacylation ribozyme variant],1.45,1.73,2.06,1.87,1.46,1.66
AUUCACUUGGGUCAUCGGGUG [Fam2.2 aminoacylation ribozyme variant],4.44,6.5,6.84,7.5,4.61,43.9
AUUACCGUGGGCAUCGAGUGA [Fam2.1 aminoacylation ribozyme variant],3.22,5.68,5.35,6.2,3.09,34.7
CAACUUCAAUCAAUCGGUCUG [Fam1A.1 aminoacylation ribozyme variant],1.4,24,1.36,2.03,1.43,35.7
AUUCACCUAGGUCAUCGCUUG [Fam2.2 aminoacylation ribozyme variant],1.12,0.795,1.32,1.26,1.18,4.33

Sequence,self-aminoacylation (biotinyl-Val-oxazolone),self-aminoacylation (biotinyl-Trp-oxazolone),self-aminoacylation (biotinyl-Met-oxazolone),self-aminoacylation (biotinyl-Leu-oxazolone),self-aminoacylation (biotinyl-Ile-oxazolone),self-aminoacylation (biotinyl-Phe-oxazolone)
CCUCACUUUAAGCAAUCGGUC [Fam1B.1 aminoacylation ribozyme variant],0.688,0.683,0.544,0.619,0.734,1.2
AAGUUAGCUAUUAGUCGCAAG [Fam3.1 aminoacylation ribozyme variant],1.6,1.74,1.34,1.82,1.99,2.06
CCGCACUUCAAUCAAUCGGUC [Fam1B.1 aminoacylation ribozyme variant],1.62,28.7,1.26,2.03,1.27,39.7
AUUCACCUCGUUCAUCGGGUG [Fam2.2 aminoacylation ribozyme variant],3.3,5,4.1,5.48,2.93,26.3
AUGUUUGAUAAUAGUCGCAAG [Fam3.1 aminoacylation ribozyme variant],1.17,1.45,1.35,1.09,1.65,1.59
AAGUUUGUUGAUAGUCGCAAG [Fam3.1 aminoacylation ribozyme variant],1.09,1.19,1.09,1.09,1.14,1.36
AUGACCCUGGUCCUCGAGUGA [Fam2.1 aminoacylation ribozyme variant],1.77,3.81,3.2,3.2,1.88,22.1
CCAAAGUUCAAGCAAUCGGUC [Fam1B.1 aminoacylation ribozyme variant],1.4,1.17,1.32,1.28,1.35,1.35
CUACUUCAAACAAACGAUCUG [Fam1A.1 aminoacylation ribozyme variant],0.779,0.336,0.728,0.569,0.693,0.828
CCACACUUCAAGCAUACGGUC [Fam1B.1 aminoacylation ribozyme variant],0.836,0.453,0.538,0.501,0.564,0.63
CCUCACCUCAAGCAAUCGGUC [Fam1B.1 aminoacylation ribozyme variant],1.3,2.12,0.79,0.963,1.02,4.38
UCACACUUCAAGCAAUCGGUG [Fam1B.1 aminoacylation ribozyme variant],3.95,6.38,5.17,7.95,3.81,29
AGGUUUGCUAAUAGUAGCAAG [Fam3.1 aminoacylation ribozyme variant],1.22,2.18,1.41,1.43,1.49,1.05
AUUACCAUGGUCAUCGAGUGC [Fam2.1 aminoacylation ribozyme variant],1.17,1.35,1.38,1.47,1.12,0.948
UCACAUUUCAAGCAAUCGGUC [Fam1B.1 aminoacylation ribozyme variant],1.07,1.56,0.73,0.847,1.04,2.47
AAGUUUGCUAAGAGUCGCAAU [Fam3.1 aminoacylation ribozyme variant],1.01,1.74,0.797,1.05,1.42,1.24
CCACACGUCAAGCAAUCGGUG [Fam1B.1 aminoacylation ribozyme variant],2.78,2.35,2.02,1.59,1.63,9.7
CUACUUCAAACUAUGGGUCUG [Fam1A.1 aminoacylation ribozyme variant],0.813,0.592,0.789,0.922,0.917,0.588
CCACACUUCAAGAAAUCUGUC [Fam1B.1 aminoacylation ribozyme variant],0.402,0.349,0.349,0.292,0.306,0.421
AAGUUGGCUAAUAAUCGCAAG [Fam3.1 aminoacylation ribozyme variant],1.67,2.04,1.29,1.34,1.72,2.15
CUACUUCAAAGAAUCGGUCGG [Fam1A.1 aminoacylation ribozyme variant],0.795,1.12,0.844,1.05,0.763,1.37
AUAAACCUAGGUCAUCGGGUG [Fam2.2 aminoacylation ribozyme variant],2.43,3.73,3.29,4.39,2.57,20.4
CUACUUCACACAAUCGGUCUU [Fam1A.1 aminoacylation ribozyme variant],0.85,0.713,0.639,0.856,0.963,0.701
CUAUUUCAAACAAUCGGUCGG [Fam1A.1 aminoacylation ribozyme variant],0.868,1.9,0.793,0.92,0.851,2.12
CCGUACUUCAAGCAAUCGGUC [Fam1B.1 aminoacylation ribozyme variant],1.3,18.4,1.06,1.42,1.16,34.5

# From the supplement of paper PMC9233669
